Results from PMC4815329, “Biochemical and Molecular Characterization of a Flavonoid 3-O-glycosyltransferase Responsible for Anthocyanins and Flavonols Biosynthesis in Freesia hybrida” (Frontiers in Plant Science, 2016).

Columns and labels:
[1] = substrate: O=c1c(O)c(-c2ccc(O)c(O)c2)oc2cc(O)cc(O)c12; test: HPLC of glucoside product, initial rates, Lineweaver-Burk; assay type: biochemical, Freesia hybrid cultivar; conditions: apparent Km, 10 mM UDP-glucose, 100 mM potassium phosphate pH 8.0, 30°C, 2 min
Source text: (§1) HPLC of glucoside product, initial rates, Lineweaver-Burk on Fh3GT1

[2] = substrate: Oc1cc(O)c2cc(O)c(-c3cc(O)c(O)c(O)c3)[o+]c2c1; test: as above; assay type: biochemical, Freesia hybrid cultivar; conditions: apparent Km, 10 mM UDP-glucose, 100 mM potassium phosphate pH 8.0, 30°C, 2 min
Source text: as §1

B1: Fh3GT1 (Freesia hybrid cultivar) (protein)
chain: MGSADRSHVALLAFPFGTHAAPLLSLGLNLASSAPHGTTFSFLSNRRPVSLPPNSAIKFYEIADGSDPEHEGHVHPEEEVRVFMEETPGNYKKALEAAVDRCGGQRVTCIVADAFLWFVGDIAAEFGVHWVPLWTGGPCSFLAHLYTDMLRNKIGTGKEADPDEDLQFLPGLSGFRVRDLPDDIVTGDLTGAFASLLHRMSIEIPRSAAAIAINTFEGLHPDIDADLASKFKKSLPIGPLNLLNPTLNQPDRFSCLAWLDKFEPHSVAYVSFGTLAALTEAELVELASGLEQSGVPFLWSLKEPGQLPAGFLDRTKDRGLVVPWVPQAEALKHVAVGASLSHCGWNSVMESVTSGVPMLCRPFLGDQTMNARAVSHVWKVGVTFENGTMTRANVAEAMKKVVVGEEGRKMRERAAAIREMAAGSVRPGGSSVQNFKALLDIVIAR
notes: full-length ORF, pET-28a(+), N-terminal His tag, E. coli BL21(DE3), Ni Sepharose purified; cDNA described in Sui et al. 2011; Asn-244 (NPTL) and Asn-386 (NGTM)
[1]
  Km: 98.47 ± 4.96 µM
  kcat: 4.59 ± 0.035 s⁻¹
  kcat/Km: 48500 M⁻¹ s⁻¹
[2]
  Km: 58.88 ± 1.68 µM
  kcat: 0.53 ± 0.01 s⁻¹
  kcat/Km: 9060 M⁻¹ s⁻¹
